From patent US20220396635A1 (UNIVERSIT T STUTTGART, published 2022)

T1: CEA (UniProt P06731 35-685)
T1 construct: whole, on cells
T1 sequence (looked up): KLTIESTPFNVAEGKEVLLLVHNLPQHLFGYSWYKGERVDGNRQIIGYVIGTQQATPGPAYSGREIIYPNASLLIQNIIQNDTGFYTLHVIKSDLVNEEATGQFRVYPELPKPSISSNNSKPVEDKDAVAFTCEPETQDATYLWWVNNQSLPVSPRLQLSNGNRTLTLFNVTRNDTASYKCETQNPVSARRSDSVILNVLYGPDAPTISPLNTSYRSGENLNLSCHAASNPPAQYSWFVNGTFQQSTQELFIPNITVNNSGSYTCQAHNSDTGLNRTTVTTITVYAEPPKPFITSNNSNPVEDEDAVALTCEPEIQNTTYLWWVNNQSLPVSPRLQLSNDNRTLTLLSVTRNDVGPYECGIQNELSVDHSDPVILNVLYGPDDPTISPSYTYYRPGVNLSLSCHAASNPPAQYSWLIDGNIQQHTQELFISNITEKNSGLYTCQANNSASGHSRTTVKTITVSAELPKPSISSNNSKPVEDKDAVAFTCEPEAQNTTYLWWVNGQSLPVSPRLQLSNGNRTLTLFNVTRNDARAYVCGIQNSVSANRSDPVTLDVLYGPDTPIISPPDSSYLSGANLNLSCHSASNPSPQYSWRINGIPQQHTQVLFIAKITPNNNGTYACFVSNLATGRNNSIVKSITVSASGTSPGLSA


Tests used:
CD3 [1] = target: T2, CD3 (UniProt P07766 23-207); assay: flow cytometry, serial dilution on Jurkat cells (CD3-expressing), PE anti-human Fc detection, n = 1
T2 construct: whole, on cells; on cells it stands in the TCR/CD3 complex; also called CD3 on Jurkat cells
Description: Trivalent, trispecific antibodies were analyzed for their binding to tumor cell lines with different EGFR- and HER3-expression levels (Table 14) by flow cytometry. Adherent cells were washed with PBS and shortly trypsinized at 37° C. Trypsin was quenched with FCS-containing medium and removed by centrifugation (500×g, 5 min.). 1×10⁵ target cells/well (FaDu, LIM1215, SKBR-3, T-47-D, MCF-7 and Jurkat cells) were incubated with a serial dilution of trivalent, trispecific antibodies for 1 h at 4° C. After removing excess of recombinant protein by washing with PBA (PBS, 2% FBS, and 0.02% sodium azide), bound protein was detected using PE-conjugated anti-human Fc mAb (Jackson ImmunoResearch Laboratories Inc). Fluorescence was measured using MACSquant VYB (Miltenyi Biotec) and data were analyzed using FlowJo (Tree Star). Relative median fluorescence intensities (MFI) were calculated as followed: relative MFI=((MFIₛₐₘₚₗₑ-(MFIdetection-MFIcells))/MFIcells).

CD3 [2] = target: T2, CD3; assay: flow cytometry, serial dilution on Jurkat cells (CD3-expressing), PE anti-human Fc detection
Description: (§1) Binding of trivalent, bispecific fusion proteins to CEA-expressing (LIM1215) and CD3-expressing (Jurkat) cell lines was analyzed by flow cytometry. 2×10⁵ cells/well were incubated with a serial dilution of trivalent, bispecific antibodies for 1 h at 4° C. followed by detection using a PE-conjugated anti-human Fc antibody (Jackson ImmunoResearch Laboratories Inc). […] Regarding the CEA-expressing cell line LIM1215, the trivalent, bispecific antibodies bound with EC₅₀ values in the nanomolar range (FIG. 16A) (Table 9).

CEA = target: T1, CEA; assay: flow cytometry, serial dilution on LIM1215 cells (CEA-expressing), PE anti-human Fc detection
Description: as §1

| Binder | EC50 (CD3 [1]) [nM] | EC50 (CD3 [2]) [nM] | EC50 (CEA) [nM] |
| --- | --- | --- | --- |
| scDb/scFv-Fc (1-3)+2, trivalent trispecific anti-EGFRxanti-HER3×anti-CD3 (other, Trispecific antibody: 1 = HER3, 2 = CD3, 3 = EGFR; also called scDbhu225x3-43-Fc(hole)Δab + scFvhuU3-Fc(knob)Δab) chain 1: EVQLVESGGGLVQPGGSLRLSCAASGFSLTNYGVHWVRQAPGKGLEWLGVIWSGGNTDYNTPFTSRFTISRDNSKNTLYLQMNSLRAEDTAVYYCARALTYYDYEFAYWGQGTTVTVSSGGGGSQAGLTQPPAVSVAPGQTASITCGRDNIGSRSVHWYQQKPGQAPVLVVYDDSDRPAGIPERFSGSNYENTATLTISRVEAGDEADYYCQVWGITSDHVVFGGGTKLTVLGGGGSGGGGSGGGGSQVQLQQSGPGLVKPSQTLSLTCAISGDSVSSNRAAWNWIRQSPSRGLEWLGRTYYRSKWYNDYAQSLKSRITINPDTPKNQFSLQLNSVTPEDTAVYYCARDGQLGLDALDIWGQGTMVTVSSGGGGSDIQLTQSPSFLSASVGDRVTITCRASQSIGTNIHWYQQKPGKAPKLLIKYASESISGVPSRFSGSGSGTEFTLTISSLQPEDFATYYCQQNNNWPTTFGAGTKLEIKRAAADKTHTCPPCPAPPVAGPSVFLFPPKPKDTLMISRTPEVTCVVVDVSHEDPEVKFNWYVDGVEVHNAKTKPREEQYNSTYRVVSVLTVLHQDWLNGKEYKCKVSNKGLPSSIEKTISKAKGQPREPQVCTLPPSRDELTKNQVSLSCAVKGFYPSDIAVEWESNGQPENNYKTTPPVLDSDGSFFLVSKLTVDKSRWQQGNVFSCSVMHEALHNHYTQKSLSLSPGK chain 2: DIQMTQSPSSLSASVGDRVTITCRASQDIRNYLNWYQQKPGKAPKLLIYYTSRLHSGVPSRFSGSGSGTDFTFTISSLQPEDIATYYCQQGNTLPWTFGQGTKLEIKRGGGGSGGGGSGGGGSQVQLVQSGAEVKKPGSSVKVSCKASGGTFSGYTMNWVRQAPGQGLEWMGLINPYKGVSTYNGKFKDRVTITADKSTSTAYMELSSLRSEDTAVYYCARSGYYGDSDWYFDVWGQGTLVTVSSAAADKTHTCPPCPAPPVAGPSVFLFPPKPKDTLMISRTPEVTCVVVDVSHEDPEVKFNWYVDGVEVHNAKTKPREEQYNSTYRVVSVLTVLHQDWLNGKEYKCKVSNKGLPSSIEKTISKAKGQPREPQVYTLPPCRDELTKNQVSLWCLVKGFYPSDIAVEWESNGQPENNYKTTPPVLDSDGSFFLYSKLTVDKSRWQQGNVFSCSVMHEALHNHYTQKSLSLSPGK | 0.6 | – | – |
| scDb/Fab-Fc (1-3)+2, trivalent trispecific anti-EGFRxanti-HER3×anti-CD3 (other, Trispecific antibody: 1 = HER3, 2 = CD3, 3 = EGFR; also called scDbhu225x3-43-Fc(hole)Δab + FdhuU3-Fc(knob)Δab + VLhuU3-CLK) EVQLVESGGGLVQPGGSLRLSCAASGFSLTNYGVHWVRQAPGKGLEWLGVIWSGGNTDYNTPFTSRFTISRDNSKNTLYLQMNSLRAEDTAVYYCARALTYYDYEFAYWGQGTTVTVSSGGGGSQAGLTQPPAVSVAPGQTASITCGRDNIGSRSVHWYQQKPGQAPVLVVYDDSDRPAGIPERFSGSNYENTATLTISRVEAGDEADYYCQVWGITSDHVVFGGGTKLTVLGGGGSGGGGSGGGGSQVQLQQSGPGLVKPSQTLSLTCAISGDSVSSNRAAWNWIRQSPSRGLEWLGRTYYRSKWYNDYAQSLKSRITINPDTPKNQFSLQLNSVTPEDTAVYYCARDGQLGLDALDIWGQGTMVTVSSGGGGSDIQLTQSPSFLSASVGDRVTITCRASQSIGTNIHWYQQKPGKAPKLLIKYASESISGVPSRFSGSGSGTEFTLTISSLQPEDFATYYCQQNNNWPTTFGAGTKLEIKRAAADKTHTCPPCPAPPVAGPSVFLFPPKPKDTLMISRTPEVTCVVVDVSHEDPEVKFNWYVDGVEVHNAKTKPREEQYNSTYRVVSVLTVLHQDWLNGKEYKCKVSNKGLPSSIEKTISKAKGQPREPQVCTLPPSRDELTKNQVSLSCAVKGFYPSDIAVEWESNGQPENNYKTTPPVLDSDGSFFLVSKLTVDKSRWQQGNVFSCSVMHEALHNHYTQKSLSLSPGK heavy: QVQLVQSGAEVKKPGSSVKVSCKASGGTFSGYTMNWVRQAPGQGLEWMGLINPYKGVSTYNGKFKDRVTITADKSTSTAYMELSSLRSEDTAVYYCARSGYYGDSDWYFDVWGQGTLVTVSSASTKGPSVFPLAPSSKSTSGGTAALGCLVKDYFPEPVTVSWNSGALTSGVHTFPAVLQSSGLYSLSSVVTVPSSSLGTQTYICNVNHKPSNTKVDKKVEPKSCDKTHTCPPCPAPPVAGPSVFLFPPKPKDTLMISRTPEVTCVVVDVSHEDPEVKFNWYVDGVEVHNAKTKPREEQYNSTYRVVSVLTVLHQDWLNGKEYKCKVSNKGLPSSIEKTISKAKGQPREPQVYTLPPCRDELTKNQVSLWCLVKGFYPSDIAVEWESNGQPENNYKTTPPVLDSDGSFFLYSKLTVDKSRWQQGNVFSCSVMHEALHNHYTQKSLSLSPGK light: not shown | 0.8 | – | – |
| scDb/scFv-Fc (1-1)+2, trivalent bispecific anti-CEAxanti-CD3 (bispecific antibody, also called scDbCEAxCEA-Fc(hole)Δab + scFvhuU3-Fc(knob)Δab) chain 1: QVKLQQSGAELVRSGTSVKLSCTASGFNIKDSYMHWLRQGPEQGLEWIGWIDPENGDTEYAPKFQGKATFTTDTSSNTAYLQLSSLTSEDTAVYYCNEGTPTGPYYFDYWGQGTTVTVSSGGGGSDIELTQSPAIMSASPGEKVTITCSASSSVSYMHWFQQKPGTSPKLWIYSTSNLASGVPARFSGSGSGTSYSLTISRMEAEDAATYYCQQRSSYPLTFGAGTKLELKRGGGGSGGGGSGGGGSQVKLQQSGAELVRSGTSVKLSCTASGFNIKDSYMHWLRQGPEQGLEWIGWIDPENGDTEYAPKFQGKATFTTDTSSNTAYLQLSSLTSEDTAVYYCNEGTPTGPYYFDYWGQGTTVTVSSGGGGSDIELTQSPAIMSASPGEKVTITCSASSSVSYMHWFQQKPGTSPKLWIYSTSNLASGVPARFSGSGSGTSYSLTISRMEAEDAATYYCQQRSSYPLTFGAGTKLELKRAAADKTHTCPPCPAPPVAGPSVFLFPPKPKDTLMISRTPEVTCVVVDVSHEDPEVKFNWYVDGVEVHNAKTKPREEQYNSTYRVVSVLTVLHQDWLNGKEYKCKVSNKGLPSSIEKTISKAKGQPREPQVCTLPPSRDELTKNQVSLSCAVKGFYPSDIAVEWESNGQPENNYKTTPPVLDSDGSFFLVSKLTVDKSRWQQGNVFSCSVMHEALHNHYTQKSLSLSPGK chain 2: DIQMTQSPSSLSASVGDRVTITCRASQDIRNYLNWYQQKPGKAPKLLIYYTSRLHSGVPSRFSGSGSGTDFTFTISSLQPEDIATYYCQQGNTLPWTFGQGTKLEIKRGGGGSGGGGSGGGGSQVQLVQSGAEVKKPGSSVKVSCKASGGTFSGYTMNWVRQAPGQGLEWMGLINPYKGVSTYNGKFKDRVTITADKSTSTAYMELSSLRSEDTAVYYCARSGYYGDSDWYFDVWGQGTLVTVSSAAADKTHTCPPCPAPPVAGPSVFLFPPKPKDTLMISRTPEVTCVVVDVSHEDPEVKFNWYVDGVEVHNAKTKPREEQYNSTYRVVSVLTVLHQDWLNGKEYKCKVSNKGLPSSIEKTISKAKGQPREPQVYTLPPCRDELTKNQVSLWCLVKGFYPSDIAVEWESNGQPENNYKTTPPVLDSDGSFFLYSKLTVDKSRWQQGNVFSCSVMHEALHNHYTQKSLSLSPGK | – | 2.8 | 2.4 |
| scDb/Fab-Fc (1-1)+2, trivalent bispecific anti-CEAxanti-CD3 (bispecific antibody, also called scDbCEAxCEA-Fc(hole)Δab + FdhuU3-Fc(knob)Δab + VLhuU3-CLK) QVKLQQSGAELVRSGTSVKLSCTASGFNIKDSYMHWLRQGPEQGLEWIGWIDPENGDTEYAPKFQGKATFTTDTSSNTAYLQLSSLTSEDTAVYYCNEGTPTGPYYFDYWGQGTTVTVSSGGGGSDIELTQSPAIMSASPGEKVTITCSASSSVSYMHWFQQKPGTSPKLWIYSTSNLASGVPARFSGSGSGTSYSLTISRMEAEDAATYYCQQRSSYPLTFGAGTKLELKRGGGGSGGGGSGGGGSQVKLQQSGAELVRSGTSVKLSCTASGFNIKDSYMHWLRQGPEQGLEWIGWIDPENGDTEYAPKFQGKATFTTDTSSNTAYLQLSSLTSEDTAVYYCNEGTPTGPYYFDYWGQGTTVTVSSGGGGSDIELTQSPAIMSASPGEKVTITCSASSSVSYMHWFQQKPGTSPKLWIYSTSNLASGVPARFSGSGSGTSYSLTISRMEAEDAATYYCQQRSSYPLTFGAGTKLELKRAAADKTHTCPPCPAPPVAGPSVFLFPPKPKDTLMISRTPEVTCVVVDVSHEDPEVKFNWYVDGVEVHNAKTKPREEQYNSTYRVVSVLTVLHQDWLNGKEYKCKVSNKGLPSSIEKTISKAKGQPREPQVCTLPPSRDELTKNQVSLSCAVKGFYPSDIAVEWESNGQPENNYKTTPPVLDSDGSFFLVSKLTVDKSRWQQGNVFSCSVMHEALHNHYTQKSLSLSPGK heavy: QVQLVQSGAEVKKPGSSVKVSCKASGGTFSGYTMNWVRQAPGQGLEWMGLINPYKGVSTYNGKFKDRVTITADKSTSTAYMELSSLRSEDTAVYYCARSGYYGDSDWYFDVWGQGTLVTVSSASTKGPSVFPLAPSSKSTSGGTAALGCLVKDYFPEPVTVSWNSGALTSGVHTFPAVLQSSGLYSLSSVVTVPSSSLGTQTYICNVNHKPSNTKVDKKVEPKSCDKTHTCPPCPAPPVAGPSVFLFPPKPKDTLMISRTPEVTCVVVDVSHEDPEVKFNWYVDGVEVHNAKTKPREEQYNSTYRVVSVLTVLHQDWLNGKEYKCKVSNKGLPSSIEKTISKAKGQPREPQVYTLPPCRDELTKNQVSLWCLVKGFYPSDIAVEWESNGQPENNYKTTPPVLDSDGSFFLYSKLTVDKSRWQQGNVFSCSVMHEALHNHYTQKSLSLSPGK light: not shown | – | 0.8 | 8.5 |
